Measurements reported in patent publication US20180155451A1 (published 2018).

T1: FcγRIIb extracellular domain with C-terminal His tag (human, UniProt P31994 43-217)
T1 construct: extracellular domain; also called FcgRIIb; 2b; not shown: His tag at the C terminus
T1 sequence (looked up): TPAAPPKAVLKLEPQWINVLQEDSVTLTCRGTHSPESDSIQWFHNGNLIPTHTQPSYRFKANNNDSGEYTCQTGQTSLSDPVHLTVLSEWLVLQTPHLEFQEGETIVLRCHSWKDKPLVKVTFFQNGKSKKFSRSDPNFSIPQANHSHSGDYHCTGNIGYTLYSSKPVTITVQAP


Tests used:
[1] = target: T1, FcγRIIb extracellular domain with …; assay: SPR (Biacore), captured antibody, FcγR as analyte; relative to GpH7-A5/GpH7-B3/GpL16-k0 = 100
Method: (§1) Analysis of interaction between objective antibody and the FcγR was carried out using Biacore T100 (GE Healthcare). HBS-EP+ (GE Healthcare) was used as the running buffer, and the measurement temperature was set to 25° C. Chips produced by immobilizing the antigen peptide by the amine coupling method to a Series S Sencor Chip CM5 (GE Healthcare), or alternatively, chips produced by allowing preliminarily biotinylated antigen peptides to interact with and immobilize onto a Series S Sensor Chip SA (certified) (GE Healthcare) were used. Antibodies of interest were captured onto an antigen peptide-immobilized chip, and allowed to interact to each FcγR diluted with running buffer. To regenerate and repeatedly use the chip, the antibodies captured on the chip were washed off by reacting 10 mM glycine-HCl, pH 1.5.
(§2) The FcγR-binding activity of each antibody was assessed primarily using as an indicator the FcγR-binding activity and dissociation constant for FcγR.

[2] = target: T2, FcγRIIIa extracellular domain with C-terminal His tag (human, UniProt P08637 17-208); assay: as above
T2 construct: extracellular domain; also called FcgRIIIa; 3a; not shown: His tag at the C terminus
T2 sequence (P08637 17-208): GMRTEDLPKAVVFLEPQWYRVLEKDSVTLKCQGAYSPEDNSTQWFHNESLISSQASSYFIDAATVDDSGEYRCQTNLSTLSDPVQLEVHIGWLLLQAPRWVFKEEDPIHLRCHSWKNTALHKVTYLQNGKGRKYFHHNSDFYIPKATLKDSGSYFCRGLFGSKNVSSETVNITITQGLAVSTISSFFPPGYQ
Method: as §1, §2

Row | He/Con_2b (IIb binding) [1] | He/Con_3a (IIIa binding) [2] | Binder
1 | 221 % of HeCon Ab | 106 % of HeCon Ab | GpH7-A5/GpH7-B3 variant P238_09D/GpL16-k0 (heterodimerized antibody, He Ab) (antibody, human IgG1, kappa, Anti-glypican-3 IgG1; the alteration is in the GpH7-B3 chain only; also called P238D) heavy 1: not shown heavy 2: not shown light: DIVMTQSPLSLPVTPGEPASISCQASESLVHSNRNTYLHWYLQKPGQSPQLLIYKVSNRFSGVPDRFSGSGSGTDFTLKISRVEAEDVGVYYCSQNTHVPPTFGQGTKVEIERTVAAPSVFIFPPSDEQLKSGTASVVCLLNNFYPREAKVQWKVDNALQSGNSQESVTEQDSKDSTYSLSSTLTLSKADYEKHKVYACEVTHQGLSSPVTKSFNRGEC
2 | 56 % of HeCon Ab | 33 % of HeCon Ab | GpH7-A5/GpH7-B3 variant P238_01G/GpL16-k0 (heterodimerized antibody, He Ab) (antibody, human IgG1, kappa, Anti-glypican-3 IgG1; the alteration is in the GpH7-B3 chain only; also called P238G) heavy 1: not shown heavy 2: not shown light: DIVMTQSPLSLPVTPGEPASISCQASESLVHSNRNTYLHWYLQKPGQSPQLLIYKVSNRFSGVPDRFSGSGSGTDFTLKISRVEAEDVGVYYCSQNTHVPPTFGQGTKVEIERTVAAPSVFIFPPSDEQLKSGTASVVCLLNNFYPREAKVQWKVDNALQSGNSQESVTEQDSKDSTYSLSSTLTLSKADYEKHKVYACEVTHQGLSSPVTKSFNRGEC
3 | 108 % of HeCon Ab | 43.3 % of HeCon Ab | GpH7-A5/GpH7-B3 variant G237_19Q/GpL16-k0 (heterodimerized antibody, He Ab) (antibody, human IgG1, kappa, Anti-glypican-3 IgG1; the alteration is in the GpH7-B3 chain only; also called G237Q) heavy 1: not shown heavy 2: not shown light: DIVMTQSPLSLPVTPGEPASISCQASESLVHSNRNTYLHWYLQKPGQSPQLLIYKVSNRFSGVPDRFSGSGSGTDFTLKISRVEAEDVGVYYCSQNTHVPPTFGQGTKVEIERTVAAPSVFIFPPSDEQLKSGTASVVCLLNNFYPREAKVQWKVDNALQSGNSQESVTEQDSKDSTYSLSSTLTLSKADYEKHKVYACEVTHQGLSSPVTKSFNRGEC
4 | 232 % of HeCon Ab | 105 % of HeCon Ab | GpH7-A5/GpH7-B3 variant P238_10E/GpL16-k0 (heterodimerized antibody, He Ab) (antibody, human IgG1, kappa, Anti-glypican-3 IgG1; the alteration is in the GpH7-B3 chain only; also called P238E) heavy 1: not shown heavy 2: not shown light: DIVMTQSPLSLPVTPGEPASISCQASESLVHSNRNTYLHWYLQKPGQSPQLLIYKVSNRFSGVPDRFSGSGSGTDFTLKISRVEAEDVGVYYCSQNTHVPPTFGQGTKVEIERTVAAPSVFIFPPSDEQLKSGTASVVCLLNNFYPREAKVQWKVDNALQSGNSQESVTEQDSKDSTYSLSSTLTLSKADYEKHKVYACEVTHQGLSSPVTKSFNRGEC
5 | 204 % of HeCon Ab | 75.5 % of HeCon Ab | GpH7-A5/GpH7-B3 variant P238_08L/GpL16-k0 (heterodimerized antibody, He Ab) (antibody, human IgG1, kappa, Anti-glypican-3 IgG1; the alteration is in the GpH7-B3 chain only; also called P238L) heavy 1: not shown heavy 2: not shown light: DIVMTQSPLSLPVTPGEPASISCQASESLVHSNRNTYLHWYLQKPGQSPQLLIYKVSNRFSGVPDRFSGSGSGTDFTLKISRVEAEDVGVYYCSQNTHVPPTFGQGTKVEIERTVAAPSVFIFPPSDEQLKSGTASVVCLLNNFYPREAKVQWKVDNALQSGNSQESVTEQDSKDSTYSLSSTLTLSKADYEKHKVYACEVTHQGLSSPVTKSFNRGEC
6 | 147 % of HeCon Ab | 76.4 % of HeCon Ab | GpH7-A5/GpH7-B3 variant L235_20W/GpL16-k0 (heterodimerized antibody, He Ab) (antibody, human IgG1, kappa, Anti-glypican-3 IgG1; the alteration is in the GpH7-B3 chain only; also called L235W) heavy 1: not shown heavy 2: not shown light: DIVMTQSPLSLPVTPGEPASISCQASESLVHSNRNTYLHWYLQKPGQSPQLLIYKVSNRFSGVPDRFSGSGSGTDFTLKISRVEAEDVGVYYCSQNTHVPPTFGQGTKVEIERTVAAPSVFIFPPSDEQLKSGTASVVCLLNNFYPREAKVQWKVDNALQSGNSQESVTEQDSKDSTYSLSSTLTLSKADYEKHKVYACEVTHQGLSSPVTKSFNRGEC
7 | 174 % of HeCon Ab | 30.5 % of HeCon Ab | GpH7-A5/GpH7-B3 variant P238_06M/GpL16-k0 (heterodimerized antibody, He Ab) (antibody, human IgG1, kappa, Anti-glypican-3 IgG1; the alteration is in the GpH7-B3 chain only; also called P238M) heavy 1: not shown heavy 2: not shown light: DIVMTQSPLSLPVTPGEPASISCQASESLVHSNRNTYLHWYLQKPGQSPQLLIYKVSNRFSGVPDRFSGSGSGTDFTLKISRVEAEDVGVYYCSQNTHVPPTFGQGTKVEIERTVAAPSVFIFPPSDEQLKSGTASVVCLLNNFYPREAKVQWKVDNALQSGNSQESVTEQDSKDSTYSLSSTLTLSKADYEKHKVYACEVTHQGLSSPVTKSFNRGEC
8 | 106 % of HeCon Ab | 91.6 % of HeCon Ab | GpH7-A5/GpH7-B3 variant L235_09D/GpL16-k0 (heterodimerized antibody, He Ab) (antibody, human IgG1, kappa, Anti-glypican-3 IgG1; the alteration is in the GpH7-B3 chain only; also called L235D) heavy 1: not shown heavy 2: not shown light: DIVMTQSPLSLPVTPGEPASISCQASESLVHSNRNTYLHWYLQKPGQSPQLLIYKVSNRFSGVPDRFSGSGSGTDFTLKISRVEAEDVGVYYCSQNTHVPPTFGQGTKVEIERTVAAPSVFIFPPSDEQLKSGTASVVCLLNNFYPREAKVQWKVDNALQSGNSQESVTEQDSKDSTYSLSSTLTLSKADYEKHKVYACEVTHQGLSSPVTKSFNRGEC
9 | 57.4 % of HeCon Ab | 31.4 % of HeCon Ab | GpH7-A5/GpH7-B3 variant P238_02A/GpL16-k0 (heterodimerized antibody, He Ab) (antibody, human IgG1, kappa, Anti-glypican-3 IgG1; the alteration is in the GpH7-B3 chain only; also called P238A) heavy 1: not shown heavy 2: not shown light: DIVMTQSPLSLPVTPGEPASISCQASESLVHSNRNTYLHWYLQKPGQSPQLLIYKVSNRFSGVPDRFSGSGSGTDFTLKISRVEAEDVGVYYCSQNTHVPPTFGQGTKVEIERTVAAPSVFIFPPSDEQLKSGTASVVCLLNNFYPREAKVQWKVDNALQSGNSQESVTEQDSKDSTYSLSSTLTLSKADYEKHKVYACEVTHQGLSSPVTKSFNRGEC
